{
  "source": "paper PMC7596504",
  "about": "“Molecular mechanism of the MORC4 ATPase activation” (Nature Communications, 2020)",
  "molecules": {"B1": {"name": "ATPase: ATPase domain (aa 29–411) of human MORC4 (Q8TE76) (protein, UniProt Q8TE76 29-411, looked up, fragment)", "chain": "GIRLSTMSPRYLQSNSSSHTRPFSAIAELLDNAVDPDVSARTVFIDVEEVKNKSCLTFTDDGCGMTPHKLHRMLSFGFTDKVIKKSQCPIGVFGNGFKSGSMRLGKDALVFTKNGGTLTVGLLSQTYLECVQAQAVIVPIVPFNQQNKKMIITEDSLPSLEAILNYSIFNRENDLLAQFDAIPGKKGTRVLIWNIRRNKNGKSELDFDTDQYDILVSDFDTEEKMTGGVTSELPETEYSLRAFCGILYMKPRMKIFLRQKKVTTQMIAKSLANVEYDTYKPTFTNKQVRITFGFSCKNSNQFGIMMYHNNRLIKSFEKVGCQVKPTRGEGVGVIGVIECNFLKPAYNKQDFEYTKEYRLTINALAQKLNAYWKEKTSQDNFET"}},
  "key": {"MORC4 CW domain": {"target": "T1, MORC4 CW domain (Homo sapiens, UniProt Q8TE76)", "T1 construct": "The CW domain (aa 417–475) of MORC4 was cloned into a pGEX 6p-1 vector; GST (N, cleaved yes); made in house; host or cells: E. coli Rosetta2 (DE3) pLysS or BL21 (DE3) RIL", "T1 sequence (Q8TE76 417-475)": "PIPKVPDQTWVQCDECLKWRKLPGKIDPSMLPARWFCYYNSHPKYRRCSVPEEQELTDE", "assay": "1H,15N HSQC NMR titration of MORC4 CW", "format": "binding", "description": "NMR experiments were carried out at 298 K on a Varian INOVA 600 and 900 MHz spectrometers. His-tagged MORC4 ATPase (1–411) was expressed and purified as described above and used without cleavage of the tag. NMR samples contained 0.1 mM uniformly ^15N-labeled WT or mutated CW in 20 mM Tris-HCl (pH 7) buffer supplemented with 100 mM NaCl, 5 mM DTT, and 10% D2O. Binding was characterized by monitoring CSPs in the proteins induced by H3 peptides or the ATPase domain. For the CWKRR mutant, NMR experiments were performed in 20 mM Tris-HCl (pH 6.8) buffer supplemented with 150 mM NaCl, 2 mM DTT, and 10% D2O."}, "MORC4": {"tested_on": "MORC4", "assay": "ATPase activity assay (EnzChek Phosphate Assay Kit)", "format": "biochemical, human", "design": "Rate of ATP hydrolysis: unit not given here", "details": "for Rate of ATP hydrolysis: no DNA, no peptide", "description": "To determine whether MORC4 is catalytically active, we produced the ATPase domain of human MORC4 and examined its ability to hydrolyze ATP in enzymatic assays (Fig. 1a–c). Following incubation of the ATPase domain with ATP, 2-amino-6-mercapto-7-methylpurine ribonucleoside and nucleoside phosphorylase, the release of inorganic phosphate generated by the hydrolysis of ATP to ADP was monitored by measuring an increase in absorbance at 360 nm.\nThe ATPase assays were performed using the EnzChek Phosphate Assay Kit (Invitrogen, item # E6646). The reactions were carried out on 1.0 µM of MORC4 His-ATPase or ATPaseCW (WT and mutants), in the presence and absence of 1 µM 601 DNA or 50 µM of unmodified H3 or H3K4me3 peptide (aa 1–12 of H3) in a buffer containing 50 mM Tris-HCl (pH 7.5), 150 mM NaCl, 1 mM MgCl2, 0.1 mM sodium azide, 200 µM MESG, and 1 U of PNP. In assay with the nucleosome, 0.5 µM of MORC4 ATPaseCW and 0.5 µM NCP167 (Activemotif) were used. The reaction was started by adding 2 mM ATP to the mixture at room temperature, and the release of inorganic phosphate was monitored by measuring the absorbance at 360 nm on a Nanodrop 2000c spectrophotometer (Thermo Scientific). In the presence of inorganic phosphate, produced by the hydrolysis of ATP to ADP, MESG is enzymatically converted to ribose 1-phosphate and […] by PNP, resulting in a shift in the wavelength absorbance from 330 nm for MESG to 360 nm for the product. The rate of ATP self-hydrolysis was measured in parallel. Error was calculated as the S.D. of at least three separate experiments (two in Fig. 4j)."}, "NCP147 [1]": {"tested_on": "NCP147", "assay": "Fluorescence polarization binding to NCP147"}, "NCP207": {"tested_on": "NCP207", "assay": "Fluorescence polarization binding to NCP207", "description": "Fluorescence polarization measurements were acquired with a Tecan infinite M1000Pro plate reader by exciting at 470 nm and measuring polarized emission at 519 nm with 5 nm excitation and emission bandwidths. The fluorescence polarization was calculated from the emission polarized parallel and perpendicular to the polarized excitation light. Fluorescence polarization measurements were carried out using increasing concentrations of MORC4 ATPaseCW, ATPase alone, or CW alone with 5 nM 207 bp Fluorescein-labeled NCPs in 15 mM Tris pH 7.5, 75 mM NaCl, 0.00625% Tween 20, and 5 mM dithiothreitol buffer in 30 µL reaction volumes. The samples were loaded into a Corning round bottom black polystyrene plate and incubated at room temperature for 10 min before fluorescence polarization measurements of the samples were taken. The data were then fit to a non-cooperative binding isotherm to determine S1/2 values. Errors represent a S.D. between the S1/2 values based on three runs.\nHistone octamers unlabeled or labeled with Cy5 at H2AK119 were prepared as previously described. NCPs were reconstituted by combining octamer with 1.25× excess DNA and performing slow salt dialysis. Free DNA was then separated from fully reconstituted NCPs by sucrose gradient purification. NCPs for fluorescence polarization assays were reconstituted from unlabeled octamer and 207 bp DNA containing the 601 Widom sequence flanked with a 30 bp linker on either side and internally labeled with Fluorescein 27 bp in from the 5′ end. Cy3-Cy5 labeled NCPs for FRET assays were reconstituted with Cy5 labeled octamer plus either 147 bp 601 Widom DNA containing a LexA transcription factor binding site at bases 8–27[34], or 252 bp DNA containing the 601 Widom sequence with a 75 bp linker at the 3′ end, a 30 bp linker at the 5’ end, and a Gal4 transcription factor binding site at bases 8–26 in the 601 Widom sequence. The 147 bp LexA-binding DNA was labeled with Cy3 on the 5′ end, and the 252 bp Gal4-binding DNA was internally labeled with Cy3 34 bp in from the 5′ end."}, "NCP147 [2]": {"tested_on": "NCP147", "assay": "EMSA with NCP147", "format": "binding", "details": "5 nM 147 bp fluorescein-labeled NCP, pH 7.5, 4 °C", "description": "EMSAs were performed by mixing increasing amounts of MORC4 ATPase with 5 nM 147 bp fluorescein-labeled NCP in 25 mM Tris-HCl pH 7.5, 75 mM NaCl, 25 mM Tris-HCl pH 7.5, 0.005% Tween 20, and 10% glycerol buffer in a 12 μL reaction volume. Each sample was incubated at 4 °C for 5 min and then loaded onto a 5% native polyacrylamide gel. Electrophoresis was performed in 0.3× Tris-borate-EDTA (TBE) at 300 V for 90 min. Fluorescein fluorescence images were acquired with a Typhoon Phosphor Imager."}},
  "data": [
    {"molecule": "B1", "values": [
      {"measurement": "interaction with CW by chemical shift perturbations", "setting": "MORC4 CW domain; 15N-labeled WT CW 0.1 mM, pH 7, 100 mM NaCl, 298 K", "result": "formation of the large ATPase:CW complex"},
      {"measurement": "competition with H3 peptide for CW", "setting": "MORC4 CW domain; titration into the CW:H3 complex", "result": "disruption of the CW:H3 complex and formation of the complex between CW and the ATPase domain"},
      {"measurement": "catalytic (ATPase) activity of the protein", "setting": "MORC4", "result": "possesses little ATP hydrolyzing activity"},
      {"measurement": "Rate of ATP hydrolysis", "setting": "MORC4; 1.0 µM protein, 2 mM ATP, pH 7.5, room temperature, absorbance 360 nm, Fig. 1b,c, mean", "result": 0.08049},
      {"measurement": "Rate of ATP hydrolysis", "setting": "MORC4; Fig. 1b, replicate 4", "result": 0.02158},
      {"measurement": "Rate of ATP hydrolysis", "setting": "MORC4; Fig. 1b, replicate 5", "result": 0.01439},
      {"measurement": "decrease in binding to NCP147 compared to NCP207", "setting": "NCP147 [1]; NCP147 vs NCP207 (peer review file)", "result": 5, "unit": "fold"},
      {"measurement": "S1/2", "setting": "NCP147 [1]; fluorescence polarization, pH 7.5, 75 mM NaCl, room temperature, 10 min, mean of n = 3", "result": 2.3, "unit": "µM"},
      {"measurement": "increase in interaction with NCP207 relative to NCP147", "setting": "NCP207; NCP207 vs NCP147", "result": "~ 5 fold"},
      {"measurement": "S1/2", "setting": "NCP207; fluorescence polarization, 5 nM NCP207, pH 7.5, 75 mM NaCl, room temperature, 10 min, mean ± S.D. of n = 3", "result": "0.50 ± 0.08", "unit": "µM"},
      {"measurement": "binding to NCP147 in EMSA", "setting": "NCP147 [2]", "result": "bound to NCP147"}
    ]}
  ]
}
